T1: Bcl-w, Q92843
T1 chain: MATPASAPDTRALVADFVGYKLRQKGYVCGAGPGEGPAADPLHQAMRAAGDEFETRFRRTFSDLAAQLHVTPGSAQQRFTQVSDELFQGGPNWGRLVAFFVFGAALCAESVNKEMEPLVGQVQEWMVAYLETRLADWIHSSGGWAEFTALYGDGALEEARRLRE

T2: Bfl-1, Q16548
T2 chain: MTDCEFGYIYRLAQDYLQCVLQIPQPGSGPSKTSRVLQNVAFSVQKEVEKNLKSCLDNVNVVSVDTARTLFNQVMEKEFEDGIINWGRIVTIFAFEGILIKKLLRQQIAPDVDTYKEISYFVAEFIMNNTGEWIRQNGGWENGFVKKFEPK

T3: Mcl-1, Q07820
T3 chain: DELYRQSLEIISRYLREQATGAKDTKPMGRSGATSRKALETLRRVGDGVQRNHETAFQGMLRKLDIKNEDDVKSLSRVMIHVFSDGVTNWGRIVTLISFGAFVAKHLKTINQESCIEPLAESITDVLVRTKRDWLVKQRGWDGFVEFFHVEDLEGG


These binders were tested against Bcl-2, P10415 (assay: peptide SPOT array, c-Myc-tagged receptor at 1 uM or 100 nM, anti-c-Myc-Cy3).
Chain of Bcl-2, P10415 (P10415 1-217): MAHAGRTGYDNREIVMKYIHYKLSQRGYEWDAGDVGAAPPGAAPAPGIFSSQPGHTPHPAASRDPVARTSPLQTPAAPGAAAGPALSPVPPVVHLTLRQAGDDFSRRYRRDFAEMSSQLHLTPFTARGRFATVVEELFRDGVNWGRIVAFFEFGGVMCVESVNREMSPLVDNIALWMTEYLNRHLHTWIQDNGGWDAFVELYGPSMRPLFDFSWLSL
Work on LCKEKPTTALLDKVADNLAIQLAAVT [ILF3] yielded an SPOT signal as a fraction of Bim BH3's signal on the same receptor and array of 0.01. Work on ASEANLFEEALEKYGKDFTDIQQDFL yielded an SPOT signal as a fraction of Bim BH3's signal on the same receptor and array of 0.01. For RAGELDRARELMRIGKRFGAVLEALE [CC2D1B], the SPOT signal as a fraction of Bim BH3's signal on the same receptor and array was 0.03. With ASEASLFEEALEKYGKDFNDIRQDFL [MTA3] the SPOT signal as a fraction of Bim BH3's signal on the same receptor and array was 0.01. In the case of KEVEDCVPVFLKHIAHDIYVCGKTIN [TUBGCP6], the SPOT signal as a fraction of Bim BH3's signal on the same receptor and array is reported as 0.01. For RQAFYLHTTKLTRIARRLCREILRPW, the SPOT signal as a fraction of Bim BH3's signal on the same receptor and array was 0.23. FSVDLNASRSLSQVAMDLHEAVSMKL [DCST2] showed an SPOT signal as a fraction of Bim BH3's signal on the same receptor and array of 0.01. Work on NKDGKSVSNRLRRLSDNCGGKVLSIT [KIAA0430] yielded an SPOT signal as a fraction of Bim BH3's signal on the same receptor and array of 0.13. Work on SSTMGQVGRQLAIIGDDINRRYDSEF [BAK1] yielded an SPOT signal as a fraction of Bim BH3's signal on the same receptor and array of 0.27. For KFMKTIPGTALVEMGDEYAVERAVTH [HNRPLL], the SPOT signal as a fraction of Bim BH3's signal on the same receptor and array was 0.01. Work on HRTSNVLTLSLKRFANFSGGKITKDV [USP36] yielded an SPOT signal as a fraction of Bim BH3's signal on the same receptor and array of 0.2.

Each binder was assayed against Bcl-xL, Q07817 in the same assay as above.
Chain of Bcl-xL, Q07817 (Q07817 1-209): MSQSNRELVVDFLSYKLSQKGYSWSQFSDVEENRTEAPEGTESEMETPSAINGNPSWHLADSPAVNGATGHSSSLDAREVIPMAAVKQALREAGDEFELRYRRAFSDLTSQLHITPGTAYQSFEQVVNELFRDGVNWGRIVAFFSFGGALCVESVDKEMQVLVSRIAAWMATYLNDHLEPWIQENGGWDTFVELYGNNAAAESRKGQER
LCKEKPTTALLDKVADNLAIQLAAVT [ILF3] showed an SPOT signal as a fraction of Bim BH3's signal on the same receptor and array of 0.03. ASEANLFEEALEKYGKDFTDIQQDFL showed an SPOT signal as a fraction of Bim BH3's signal on the same receptor and array of 0.03. Work on RAGELDRARELMRIGKRFGAVLEALE [CC2D1B] yielded an SPOT signal as a fraction of Bim BH3's signal on the same receptor and array of 0.16. For ASEASLFEEALEKYGKDFNDIRQDFL [MTA3], the SPOT signal as a fraction of Bim BH3's signal on the same receptor and array was 0.02. In the case of KEVEDCVPVFLKHIAHDIYVCGKTIN [TUBGCP6], the SPOT signal as a fraction of Bim BH3's signal on the same receptor and array is reported as 0.04. Binder RQAFYLHTTKLTRIARRLCREILRPW has an SPOT signal as a fraction of Bim BH3's signal on the same receptor and array of 0.75. With FSVDLNASRSLSQVAMDLHEAVSMKL [DCST2] the SPOT signal as a fraction of Bim BH3's signal on the same receptor and array was 0.03. NKDGKSVSNRLRRLSDNCGGKVLSIT [KIAA0430] gave an SPOT signal as a fraction of Bim BH3's signal on the same receptor and array of 0.56. Binder SSTMGQVGRQLAIIGDDINRRYDSEF [BAK1] has an SPOT signal as a fraction of Bim BH3's signal on the same receptor and array of 0.4. For KFMKTIPGTALVEMGDEYAVERAVTH [HNRPLL], the SPOT signal as a fraction of Bim BH3's signal on the same receptor and array was 0.04. HRTSNVLTLSLKRFANFSGGKITKDV [USP36] gave an SPOT signal as a fraction of Bim BH3's signal on the same receptor and array of 0.55.

Target: T1, Bcl-w, Q92843
Test: as above
Work on LCKEKPTTALLDKVADNLAIQLAAVT [ILF3] yielded an SPOT signal as a fraction of Bim BH3's signal on the same receptor and array of 0.02. ASEANLFEEALEKYGKDFTDIQQDFL gave an SPOT signal as a fraction of Bim BH3's signal on the same receptor and array of 0.02. RAGELDRARELMRIGKRFGAVLEALE [CC2D1B] showed an SPOT signal as a fraction of Bim BH3's signal on the same receptor and array of 0.13. With ASEASLFEEALEKYGKDFNDIRQDFL [MTA3] the SPOT signal as a fraction of Bim BH3's signal on the same receptor and array was 0.02. KEVEDCVPVFLKHIAHDIYVCGKTIN [TUBGCP6] showed an SPOT signal as a fraction of Bim BH3's signal on the same receptor and array of 0.02. For RQAFYLHTTKLTRIARRLCREILRPW, the SPOT signal as a fraction of Bim BH3's signal on the same receptor and array was 0.89. FSVDLNASRSLSQVAMDLHEAVSMKL [DCST2] showed an SPOT signal as a fraction of Bim BH3's signal on the same receptor and array of 0.03. NKDGKSVSNRLRRLSDNCGGKVLSIT [KIAA0430] was tested, and the SPOT signal as a fraction of Bim BH3's signal on the same receptor and array was 0.61. In the case of SSTMGQVGRQLAIIGDDINRRYDSEF [BAK1], the SPOT signal as a fraction of Bim BH3's signal on the same receptor and array is reported as 0.72. In the case of KFMKTIPGTALVEMGDEYAVERAVTH [HNRPLL], the SPOT signal as a fraction of Bim BH3's signal on the same receptor and array is reported as 0.02. For HRTSNVLTLSLKRFANFSGGKITKDV [USP36], the SPOT signal as a fraction of Bim BH3's signal on the same receptor and array was 0.65.

Target: T2, Bfl-1, Q16548
Test: as above
LCKEKPTTALLDKVADNLAIQLAAVT [ILF3] showed an SPOT signal as a fraction of Bim BH3's signal on the same receptor and array of 0.02. In the case of ASEANLFEEALEKYGKDFTDIQQDFL, the SPOT signal as a fraction of Bim BH3's signal on the same receptor and array is reported as 0.01. RAGELDRARELMRIGKRFGAVLEALE [CC2D1B] gave an SPOT signal as a fraction of Bim BH3's signal on the same receptor and array of 0.16. ASEASLFEEALEKYGKDFNDIRQDFL [MTA3] showed an SPOT signal as a fraction of Bim BH3's signal on the same receptor and array of 0.01. KEVEDCVPVFLKHIAHDIYVCGKTIN [TUBGCP6] showed an SPOT signal as a fraction of Bim BH3's signal on the same receptor and array of 0.03. RQAFYLHTTKLTRIARRLCREILRPW gave an SPOT signal as a fraction of Bim BH3's signal on the same receptor and array of 0.72. For FSVDLNASRSLSQVAMDLHEAVSMKL [DCST2], the SPOT signal as a fraction of Bim BH3's signal on the same receptor and array was 0.08. Binder NKDGKSVSNRLRRLSDNCGGKVLSIT [KIAA0430] has an SPOT signal as a fraction of Bim BH3's signal on the same receptor and array of 0.31. Binder SSTMGQVGRQLAIIGDDINRRYDSEF [BAK1] has an SPOT signal as a fraction of Bim BH3's signal on the same receptor and array of 0.4. With KFMKTIPGTALVEMGDEYAVERAVTH [HNRPLL] the SPOT signal as a fraction of Bim BH3's signal on the same receptor and array was 0.02. HRTSNVLTLSLKRFANFSGGKITKDV [USP36] showed an SPOT signal as a fraction of Bim BH3's signal on the same receptor and array of 0.48.

Target: T3, Mcl-1, Q07820
Test: as above
LCKEKPTTALLDKVADNLAIQLAAVT [ILF3] showed an SPOT signal as a fraction of Bim BH3's signal on the same receptor and array of 0.02. ASEANLFEEALEKYGKDFTDIQQDFL showed an SPOT signal as a fraction of Bim BH3's signal on the same receptor and array of 0.03. RAGELDRARELMRIGKRFGAVLEALE [CC2D1B] gave an SPOT signal as a fraction of Bim BH3's signal on the same receptor and array of 0.06. ASEASLFEEALEKYGKDFNDIRQDFL [MTA3] gave an SPOT signal as a fraction of Bim BH3's signal on the same receptor and array of 0.02. KEVEDCVPVFLKHIAHDIYVCGKTIN [TUBGCP6] was tested, and the SPOT signal as a fraction of Bim BH3's signal on the same receptor and array was 0.02. With RQAFYLHTTKLTRIARRLCREILRPW the SPOT signal as a fraction of Bim BH3's signal on the same receptor and array was 0.41. Work on FSVDLNASRSLSQVAMDLHEAVSMKL [DCST2] yielded an SPOT signal as a fraction of Bim BH3's signal on the same receptor and array of 0.06. Binder NKDGKSVSNRLRRLSDNCGGKVLSIT [KIAA0430] has an SPOT signal as a fraction of Bim BH3's signal on the same receptor and array of 0.21. In the case of SSTMGQVGRQLAIIGDDINRRYDSEF [BAK1], the SPOT signal as a fraction of Bim BH3's signal on the same receptor and array is reported as 0.84. In the case of KFMKTIPGTALVEMGDEYAVERAVTH [HNRPLL], the SPOT signal as a fraction of Bim BH3's signal on the same receptor and array is reported as 0.02. In the case of HRTSNVLTLSLKRFANFSGGKITKDV [USP36], the SPOT signal as a fraction of Bim BH3's signal on the same receptor and array is reported as 0.29.
